The supplement of paper PMC10567573

B1: ZNF649 (parent)
chain: MTKAQESLTLEDVAVDFTWEEWQF

Variants of: B1
Assay: protein stability index of a GFP-peptide fusion (GPS, HEK-293T) (PSI 1-6); higher = more stable
Settings: c terminus: a fixed tail appended
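Note: lentivirally expressed fusions sorted by FACS into six bins by GFP to DsRed ratio, PSI derived from sequencing read proportions per bin multiplied by bin number.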

Point of comparison: MTKAQESLTLEDVDVDFTWEEWQF [A14D], protein stability index 4.04. Against it:
- MTKAQESLTLEDVAVDFTWEHWQF [E21H] — lower, 1.53
- MTKAQESLTLEDVAVDFTWEAWQF [E21A] — lower, 2.12
- MTKAQESLTLEDVAVDFTWEDWQF [E21D] — lower, 3.36
- MTKAQESLTLEDVAVDFTWELWQF [E21L] — lower, 1.23
- MTKAQESLTLEDVAVDFTWEQWQF [E21Q] — lower, 3.08
- MTKAQESLTLEDVAVDFTWEKWQF [E21K] — lower, 1.95
- MTKAQESLTLEDVAVDFTWESWQF [E21S] — lower, 2.11
- MTKAQESLTLEDVAVDFTWEVWQF [E21V] — lower, 2.81
- MTKAQESLTLEDVAVDFTWEYWQF [E21Y] — lower, 1.95
- MTKAQESLTLEDVAVDFTWEMWQF [E21M] — lower, 2.25
- MTKAQESLTLEDVAVDFTWENWQF [E21N] — lower, 1.54
- MTKAQESLTLEDVAVDFTWEPWQF [E21P] — lower, 1.89
- MTKAQESLTLEDVAVDFTWEGWQF [E21G] — lower, 1.49
- MTKAQESLTLEDVAVDFTWEWWQF [E21W] — lower, 2.72
- MTKAQESLTLEDVAVDFTWEFWQF [E21F] — lower, 3.42
- MTKAQESLTLEDVAVDFTWECWQF [E21C] — lower, 1.58
- MTKAQESLTLEDVAVDFTWERWQF [E21R] — lower, 3.17
- MTKAQESLTLEDVAVDFTWETWQF [E21T] — lower, 2.21
- MTKAQESLTLEDVAVDFTWEEGQF [W22G] — higher, 4.33
- MTKAQESLTLEDVAVDFTWEEDQF [W22D] — higher, 4.64
- MTKAQESLTLEDVAVDFTWEEEQF [W22E] — higher, 4.52
- MTKAQESLTLEDVAVDFTWEENQF [W22N] — higher, 4.27
- MTKAQESLTLEDVAVDFTWEELQF [W22L] — lower, 3.62
- MTKAQESLTLEDVAVDFTWEEHQF [W22H] — higher, 4.13
- MTKAQESLTLEDVAVDFTWEECQF [W22C] — lower, 3.12
- MTKAQESLTLEDVAVDFTWEEFQF [W22F] — lower, 3.41
- MTKAQESLTLEDVAVDFTWEERQF [W22R] — lower, 3.69
- MTKAQESLTLEDVAVDFTWEEVQF [W22V] — lower, 3.96
- MTKAQESLTLEDVAVDFTWEEYQF [W22Y] — lower, 3.44
- MTKAQESLTLEDVAVDFTWEEMQF [W22M] — lower, 3.72
- MTKAQESLTLEDVAVDFTWEETQF [W22T] — higher, 4.28
- MTKAQESLTLEDVAVDFTWEEPQF [W22P] — higher, 4.4
- MTKAQESLTLEDVAVDFTWEEKQF [W22K] — higher, 4.76
- MTKAQESLTLEDVAVDFTWEEQQF [W22Q] — higher, 4.16
- MTKAQESLTLEDVAVDFTWEEAQF [W22A] — higher, 4.17
- MTKAQESLTLEDVAVDFTWEEIQF [W22I] — lower, 3.54
- MTKAQESLTLEDVAVDFTWEESQF [W22S] — higher, 4.78
- MTKAQESLTLEDVAFDFTWEEWQF [V15F] — lower, 2.48
- MTKAQESLTLEDVADDFTWEEWQF [V15D] — lower, 3.77
- MTKAQESLTLEDVANDFTWEEWQF [V15N] — lower, 3.87
- MTKAQESLTLEDVAGDFTWEEWQF [V15G] — higher, 4.07
- MTKAQESLTLEDVAIDFTWEEWQF [V15I] — lower, 2.53
- MTKAQESLTLEDVAMDFTWEEWQF [V15M] — lower, 3.77
- MTKAQESLTLEDVATDFTWEEWQF [V15T] — higher, 4.1
- MTKAQESLTLEDVARDFTWEEWQF [V15R] — higher, 4.16
- MTKAQESLTLEDVAEDFTWEEWQF [V15E] — lower, 3.94
- MTKAQESLTLEDVAHDFTWEEWQF [V15H] — higher, 4.33
- MTKAQESLTLEDVAADFTWEEWQF [V15A] — lower, 3.92
- MTKAQESLTLEDVAKDFTWEEWQF [V15K] — lower, 3.95
- MTKAQESLTLEDVACDFTWEEWQF [V15C] — lower, 3.71
- MTKAQESLTLEDVAPDFTWEEWQF [V15P] — higher, 4.07
- MTKAQESLTLEDVAQDFTWEEWQF [V15Q] — higher, 4.44
- MTKAQESLTLEDVAYDFTWEEWQF [V15Y] — lower, 3.91
- MTKAQESLTLEDVALDFTWEEWQF [V15L] — lower, 2.56
- MTKAQESLTLEDVAWDFTWEEWQF [V15W] — lower, 2.59
- MTKAQESLTLEDVASDFTWEEWQF [V15S] — lower, 3.35
- MTKAQESLTLEDVNVDFTWEEWQF [A14N] — lower, 2.92
- MTKAQESLTLEDVHVDFTWEEWQF [A14H] — lower, 3.12
- MTKAQESLTLEDVSVDFTWEEWQF [A14S] — lower, 3.06
- MTKAQESLTLEDVWVDFTWEEWQF [A14W] — lower, 3.29
- MTKAQESLTLEDVQVDFTWEEWQF [A14Q] — lower, 3.61
- MTKAQESLTLEDVLVDFTWEEWQF [A14L] — lower, 1.74
- MTKAQESLTLEDVFVDFTWEEWQF [A14F] — lower, 2.08
- MTKAQESLTLEDVYVDFTWEEWQF [A14Y] — lower, 1.65
- MTKAQESLTLEDVPVDFTWEEWQF [A14P] — higher, 4.12
- MTKAQESLTLEDVCVDFTWEEWQF [A14C] — lower, 2.4
- MTKAQESLTLEDVTVDFTWEEWQF [A14T] — lower, 2.92
- MTKAQESLTLEDVMVDFTWEEWQF [A14M] — lower, 2.46
- MTKAQESLTLEDVIVDFTWEEWQF [A14I] — lower, 1.88
- MTKAQESLTLEDVAVDFTDEEWQF [W19D] — higher, 4.65
- MTKAQESLTLEDVAVDFTKEEWQF [W19K] — lower, 3.58
- MTKAQESLTLEDVAVDFTREEWQF [W19R] — higher, 4.07
- MTKAQESLTLEDVAVDFTLEEWQF [W19L] — lower, 3
- MTKAQESLTLEDVAVDFTFEEWQF [W19F] — lower, 3.19
- MTKAQESLTLEDVAVDFTMEEWQF [W19M] — lower, 3.77
- MTKAQESLTLEDVAVDFTYEEWQF [W19Y] — lower, 3.61
- MTKAQESLTLEDVAVDFTTEEWQF [W19T] — higher, 4.07
- MTKAQESLTLEDVAVDFTHEEWQF [W19H] — lower, 3.6
- MTKAQESLTLEDVAVDFTVEEWQF [W19V] — lower, 3.68
- MTKAQESLTLEDVAVDFTAEEWQF [W19A] — higher, 4.51
- MTKAQESLTLEDVAVDFTQEEWQF [W19Q] — higher, 4.43
- MTKAQESLTLEDVAVDFTCEEWQF [W19C] — lower, 3.85
- MTKAQESLTLEDVAVDFTNEEWQF [W19N] — higher, 4.37
- MTKAQESLTLEDVAVDFTPEEWQF [W19P] — higher, 4.43
- MTKAQESLTLEDVAVDFTGEEWQF [W19G] — higher, 4.61
- MTKAQESLTLEDVAVDFTEEEWQF [W19E] — higher, 4.66
- MTKAQESLTLEDVAVDFTSEEWQF [W19S] — higher, 4.29
- MTKAQESLTLEDVAVDFTIEEWQF [W19I] — lower, 2.56
- MTKAQESLTLEDVAVSFTWEEWQF [D16S] — lower, 3.12
- MTKAQESLTLEDVAVFFTWEEWQF [D16F] — lower, 2.94
- MTKAQESLTLEDVAVLFTWEEWQF [D16L] — lower, 2.73
- MTKAQESLTLEDVAVQFTWEEWQF [D16Q] — lower, 2.92
- MTKAQESLTLEDVAVTFTWEEWQF [D16T] — lower, 3.32
